# In doi:10.1101/2023.02.25.529910 (bioRxiv, 2023):
# B1: gpVdL-DEL (bacteriophage P2 gpV residues 97-196 plus an exogenous Leu197, Apex domain deleted) (domain or fragment)
# chain: ADALHIRFPDGAVIEYEPETSALTVSGIKTASVTASGSVTATVPVVMVKASTRVTLDTPEVVCTNRLITGTLEVQKGGTMRGNIEHTGGELSSNGKVLHTL
# B2: gpVdL-AA (bacteriophage P2 gpV residues 97-211, H197A/H199A) (domain or fragment)
# chain: ADALHIRFPDGAVIEYEPETSALTVSGIKTASVTASGSVTATVPVVMVKASTRVTLDTPEVVCTNRLITGTLEVQKGGTMRGNIEHTGGELSSNGKVLHTAKAPGDSGGTTGSPL
# B3: gpVdL-FF (bacteriophage P2 gpV residues 97-211, H197F/H199F) (domain or fragment)
# chain: ADALHIRFPDGAVIEYEPETSALTVSGIKTASVTASGSVTATVPVVMVKASTRVTLDTPEVVCTNRLITGTLEVQKGGTMRGNIEHTGGELSSNGKVLHTFKFPGDSGGTTGSPL
# B4: gpV-AA (full-length bacteriophage P2 gpV, H197A/H199A) (natural protein)
# chain: MNTLANIQELARALRNMIRTGIIVETDLNAGRCRVQTGGMCTDWLQWLTHRAGRSRTWWAPSVGEQVLILAVGGELDTAFVLPGIYSGDNPSPSVSADALHIRFPDGAVIEYEPETSALTVSGIKTASVTASGSVTATVPVVMVKASTRVTLDTPEVVCTNRLITGTLEVQKGGTMRGNIEHTGGELSSNGKVLHTAKAPGDSGGTTGSPL
# B5: gpV-FF (full-length bacteriophage P2 gpV, H197F/H199F) (natural protein)
# chain: MNTLANIQELARALRNMIRTGIIVETDLNAGRCRVQTGGMCTDWLQWLTHRAGRSRTWWAPSVGEQVLILAVGGELDTAFVLPGIYSGDNPSPSVSADALHIRFPDGAVIEYEPETSALTVSGIKTASVTASGSVTATVPVVMVKASTRVTLDTPEVVCTNRLITGTLEVQKGGTMRGNIEHTGGELSSNGKVLHTFKFPGDSGGTTGSPL
# B6: gpV-DEL (bacteriophage P2 gpV with the Apex domain deleted, ends at Thr196 plus an exogenous Leu197) (domain or fragment)
# chain: MNTLANIQELARALRNMIRTGIIVETDLNAGRCRVQTGGMCTDWLQWLTHRAGRSRTWWAPSVGEQVLILAVGGELDTAFVLPGIYSGDNPSPSVSADALHIRFPDGAVIEYEPETSALTVSGIKTASVTASGSVTATVPVVMVKASTRVTLDTPEVVCTNRLITGTLEVQKGGTMRGNIEHTGGELSSNGKVLHTL
# Legend:
# [1] = target: the molecule itself; test: crystal structure
# [2] = target: the molecule itself; test: SEC
Protein,stoichiometry N [1],binding result [2],also measured
B1,,,binding result [1]: binds
B2,3,,
B3,3,,
B4,,binds,
B5,,binds,
B6,,binds,
